The record followed here is the RNAGym collection of RNA variant scans (doi:10.7554/elife.80360).

Sequences and labels used below:
B1: Twister Ribozyme (parent)
chain: AACACUGCCAAUGCCGGUCCCAAGCCCGGAUAAAAGUGGAGGGGGCGG

In the data set the parent is B1. The data set can be described thus: self-cleavage, relative activity (ratio to wild type); higher = more cleavage; co-transcriptional.
With A11U G24U, the self-cleavage was 0.105.
As for A11U G24A, the figure is 0.108.
For A11G G47A, the self-cleavage is 0.812.
As for A10U U37C, the figure is 0.667; as for A10U U37A, 0.86; as for A11G C27G, 0.0637.
As for A11G A40G, the figure is 0.11; as for A11U A23U, 0.765; as for A11U A23C, 0.241.
As for A11U C14G, the figure is 0.203; as for A11U G41A, 0.747.
As to A11U G41C, the self-cleavage amounted to 0.374.
As for U12A G29A, the figure is 1.11; as for U12A G29U, 1.13; as for A10U C27A, 0.645.
For A10U C46A, the self-cleavage was 0.913.
As for A10U C46G, the figure is 0.857; as for A10U A33G, 0.825; as for A10U A33C, 1.08.
As for A10U A33U, the self-cleavage came to 1.07.
As for A11U A34U, the figure is 0.974.
As for A11U A34G, the figure is 1.07.
As for A11G U12C, the figure is 1.13; as for U12A G42C, 0.601; as for U12A G42U, 0.427.
On to U12A G42A, for which the self-cleavage was 0.463.
In the case of A10U G48U, the self-cleavage turned out to be 0.933.
As for A10U G48C, the figure is 1.09; as for A11C G17U, 0.14; as for A11C G17A, 0.134.
As for A11U A30C, the figure is 0.862; as for A11G G13U, 0.705.
Regarding U12A G36C, the self-cleavage was 0.693.
As for A11G C21A, the figure is 0.107; as for A11G C21G, 0.0655; as for A11G C21U, 0.12.
As for A11U U31A, the figure is 0.918; as for A11U U31G, 0.893.
As for U12A A35U, the figure is 1.06; as for A11U G28U, 0.968; as for A11U G28A, 1.02.
For A11U C21A, the self-cleavage stood at 0.114.
Regarding A11U C21G, the self-cleavage is 0.0514.
As for U12C C19G, the figure is 0.428; as for U12C C19A, 0.314.
As for U12A G41U, the figure is 0.772.
As for A10U G41U, the figure is 0.61; as for A10U G41C, 0.239; as for A10U G41A, 0.626.
Turning to A11G C20U, the self-cleavage was 0.797.
As for A11G C20G, the figure is 0.197; as for A11G C20A, 0.117; as for A10U A22G, 0.291.
As for A10U A22U, the figure is 0.829; as for A11G A22C, 0.904; as for A11G A22U, 0.66.
As for A10U U31C, the figure is 0.919; as for A10U U31A, 0.694.
Regarding U12C G36A, the self-cleavage was determined as 0.679.
As for A10U G44A, the figure is 0.924; as for U12A A32G, 1.12; as for U12A A32C, 1.15.
As for A11C C21U, the figure is 0.1; as for A11C C21G, 0.118.
As for A11C C21A, the figure is 0.0812.
As to A11G G43A, the self-cleavage came out at 0.234.
For the variant A11G G43C, the self-cleavage is 0.169.
As for A11U G17C, the figure is 0.111; as for A11U G17U, 0.264.
As for A11U G17A, the figure is 0.497; as for A10U G17U, 0.302; as for A10U A34C, 0.279.
As for A10U A34G, the figure is 0.703.
As for A11C A34U, the self-cleavage was determined as 0.785.
As for A11C A34C, the figure is 0.049; as for U12C A40U, 0.144.
As for U12C A40G, the figure is 0.107; as for U12C A40C, 0.177; as for U12A C21G, 0.122.
Consider U12A C21U, for which the self-cleavage came to 0.164.
As for A11G C15G, the figure is 0.0492; as for A11G C15U, 0.912.
As for A11G A23G, the figure is 0.447; as for A11G A23C, 0.422; as for U12A C25G, 0.423.
A11U G29U: the self-cleavage stood at 1.04.
As for A11U G29C, the figure is 1.02; as for A11G G48A, 0.884.
Consider A11G G48C, for which the self-cleavage came to 1.09.
As for A11U C20A, the figure is 0.178; as for U12A A22C, 1.08; as for A10U C25U, 0.731.
As for A10U C25A, the figure is 0.0757.
As for U12C G17U, the figure is 0.291; as for U12C G17C, 0.0944.
As for A11C A22U, the self-cleavage was found to be 0.58.
As for U12C C27U, the figure is 0.951.
For A10U G45C, the self-cleavage is 0.707.
As for A10U C21U, the figure is 0.0991.
As for A10U C21A, the figure is 0.175; as for A10U C21G, 0.126.
As for A11U C15G, the figure is 0.0907; as for A11U C15A, 0.62.
As to A11C G45C, the self-cleavage is 0.581.
As for A11C G45A, the figure is 0.938.
As for A10U G36C, the self-cleavage was 0.711.
As for A10U C19A, the figure is 0.331; as for A10U C19G, 0.367.
As to A11G C25G, the self-cleavage stood at 0.437.
As for U12A C46U, the figure is 0.977; as for U12C A22G, 0.307.
As for A10U G42A, the figure is 0.489; as for A10U G42C, 0.543.
As for U12A C19A, the figure is 0.342; as for A11U G45A, 1.13; as for U12C G16C, 0.482.
Take A11U U18G: the self-cleavage was 0.0666.
Consider U12A C20A, for which the self-cleavage was determined as 0.181.
Take U12A C20G: the self-cleavage turned out to be 0.16.
As for U12A U18C, the self-cleavage is 0.623.
As for U12A U18A, the figure is 0.643; as for A11C C15U, 0.545.
Turning to A11C C15G, the self-cleavage was determined as 0.0591.
Take A11C G36C: the self-cleavage stood at 0.636.
For the variant A10U G39A, the self-cleavage was determined as 0.531.
As for A10U G39U, the figure is 0.215; as for U12A C15A, 0.901; as for U12A C15G, 0.17.
As for A11U G13C, the figure is 0.592.
As for A11C A30U, the figure is 0.959.
In the case of A11C G44C, the self-cleavage amounted to 0.889.
As for A11C G44A, the figure is 0.955; as for U12C C14U, 1.06; as for U12C C25A, 0.122.
U12C C25U: the self-cleavage came to 0.736.
As for U12A G16C, the figure is 0.688.
As for A11G G41C, the figure is 0.313; as for A11U G38C, 1.08.
As for A11C A33C, the figure is 0.724; as for A11C A33G, 0.893; as for A11G G29A, 0.772.
For the variant A11G G29U, the self-cleavage was 0.762.
As for A11G G45C, the figure is 0.343; as for A11G U37C, 0.529; as for A11G U37G, 0.494.
As for A11U A40C, the figure is 0.161; as for A11U A40U, 0.142.
As for A11G G28A, the figure is 0.84.
For A11G G28C, the self-cleavage worked out at 0.801.
As for A11G G28U, the figure is 0.725; as for A11U A32U, 1.1; as for A11U A32G, 0.911.
As for A10U G24A, the figure is 0.0831.
As for A10U G24C, the figure is 0.0965; as for A11G A32C, 0.925.
For A11G A32G, the self-cleavage stood at 0.882.
As for U12A A23C, the figure is 0.394.
As for U12A A23G, the figure is 0.768; as for A10U C20A, 0.168.
As for A10U C20G, the figure is 0.131.
With A10U C20U, the self-cleavage came to 0.948.
As to A10U A30C, the self-cleavage stood at 0.784.
As for A10U A30G, the figure is 0.915; as for A10U A30U, 0.922; as for A11G G16A, 0.627.
On to A11G G24U, for which the self-cleavage is 0.143.
As for A11G A30C, the figure is 0.861.
